Laboratory results reported in patent US20220089698A1 (published 2022).

Experiments:
HIV gp120 Bal = HIV gp120 Bal (HIV); assay: single-point ELISA; note: test concentration or dose not given here
HIV gp120 CAAN = HIV gp120 CAAN (HIV); assay: single-point ELISA; note: test concentration or dose not given here

Binder | ELISA (A450) (HIV gp120 Bal) | ELISA (A450) (HIV gp120 CAAN)
1.1.7-1 (antibody, human IgG1, kappa) heavy: QVQLLQSGAAVTKPGASVRVSCEASGYNIRDYFIHWWRQAPGQGLQWVGWINPKTGQPNNPRQFQGRVSLTRHASWDFDTFSFYMDLKALRSDDTAVYFCARQRSDYWDFDVWGSGTQVTVSSASTKGPSVFPLAPSSKSTSGGTAALGCLVKDYFPEPVTVSWNSGALTSGVHTFPAVLQSSGLYSLSSVVTVPSSSLGTQTYICNVNHKPSNTKVDKKVEPKSCDKTHTCPPCPAPELLAGPDVFLFPPKPKDTLMISRTPEVTCVVVDVSHEDPEVKFNWYVDGVEVHNAKTKPREEQYNSTYRVVSVLTVLHQDWLNGKEYKCKVSNKALPLPEEKTISKAKGQPREPQVYTLPPSREEMTKNQVSLTCLVKGFYPSDIAVEWESNGQPENNYKTTPPVLDSDGSFFLYSKLTVDKSRWQQGNVFSCSVLHEALHSHYTQKSLSLSPGK light: DIQMTQSPSSLSASVGDTVTITCQANGYLNWYQQRRGKAPKLLIYDGSNLERGVPSRFSGRRWGQEYNLTINNLQPEDIATYFCQVYEFVVPGTRLDLKRTVAAPSVFIFPPSDEQLKSGTASVVCLLNNFYPREAKVQWKVDNALQSGNSQESVTEQDSKDSTYSLSSTLTLSKADYEKHKVYACEVTHQGLSSPVTKSFNRGEC | 0.95 | 1
1.1.11-1 (antibody, human IgG1, kappa) heavy: QVQLLQSGAAVTKPGASVRVSCEASGYNIRDYFIHWWRQAPGQGLQWVGWINPKTGQPNNPRQFQGRVSLTRHASWDFDTFSFYMDLKALRSDDTAVYFCARQRSDYWDFDVWGSGTQVTVSSASTKGPSVFPLAPSSKSTSGGTAALGCLVKDYFPEPVTVSWNSGALTSGVHTFPAVLQSSGLYSLSSVVTVPSSSLGTQTYICNVNHKPSNTKVDKKVEPKSCDKTHTCPPCPAPELLAGPDVFLFPPKPKDTLMISRTPEVTCVVVDVSHEDPEVKFNWYVDGVEVHNAKTKPREEQYNSTYRVVSVLTVLHQDWLNGKEYKCKVSNKALPLPEEKTISKAKGQPREPQVYTLPPSREEMTKNQVSLTCLVKGFYPSDIAVEWESNGQPENNYKTTPPVLDSDGSFFLYSKLTVDKSRWQQGNVFSCSVLHEALHSHYTQKSLSLSPGK light: DIQMTQSPSSLSASVGDTVTITCQANGYLNWYQQRRGKAPKLLIYDGSKLERGVPSRFSGSRWGQEYTLTINNLQPEDIATYFCQVYEFVVPGTRLDLKRTVAAPSVFIFPPSDEQLKSGTASVVCLLNNFYPREAKVQWKVDNALQSGNSQESVTEQDSKDSTYSLSSTLTLSKADYEKHKVYACEVTHQGLSSPVTKSFNRGEC | 0.92 | 1.03
1.1.15-1 (antibody, human IgG1, kappa) heavy: QVQLLQSGAAVTKPGASVRVSCEASGYNIRDYFIHWWRQAPGQGLQWVGWINPKTGQPNNPRQFQGRVSLTRHASWDFDTFSFYMDLKALRSDDTAVYFCARQRSDYWDFDVWGSGTQVTVSSASTKGPSVFPLAPSSKSTSGGTAALGCLVKDYFPEPVTVSWNSGALTSGVHTFPAVLQSSGLYSLSSVVTVPSSSLGTQTYICNVNHKPSNTKVDKKVEPKSCDKTHTCPPCPAPELLAGPDVFLFPPKPKDTLMISRTPEVTCVVVDVSHEDPEVKFNWYVDGVEVHNAKTKPREEQYNSTYRVVSVLTVLHQDWLNGKEYKCKVSNKALPLPEEKTISKAKGQPREPQVYTLPPSREEMTKNQVSLTCLVKGFYPSDIAVEWESNGQPENNYKTTPPVLDSDGSFFLYSKLTVDKSRWQQGNVFSCSVLHEALHSHYTQKSLSLSPGK light: DIQMTQSPSSLSASVGDTVTITCQANGYLNWYQQRRGKAPKLLIYDGSKLERGVPSRFSGRRWGQEYNLTINNLQPEDIATYFCQVYEFFVPGTRLDLKRTVAAPSVFIFPPSDEQLKSGTASVVCLLNNFYPREAKVQWKVDNALQSGNSQESVTEQDSKDSTYSLSSTLTLSKADYEKHKVYACEVTHQGLSSPVTKSFNRGEC | 0.93 | 0.79
1.1.13-1 (antibody, human IgG1, kappa) heavy: QVQLLQSGAAVTKPGASVRVSCEASGYNIRDYFIHWWRQAPGQGLQWVGWINPKTGQPNNPRQFQGRVSLTRHASWDFDTFSFYMDLKALRSDDTAVYFCARQRSDYWDFDVWGSGTQVTVSSASTKGPSVFPLAPSSKSTSGGTAALGCLVKDYFPEPVTVSWNSGALTSGVHTFPAVLQSSGLYSLSSVVTVPSSSLGTQTYICNVNHKPSNTKVDKKVEPKSCDKTHTCPPCPAPELLAGPDVFLFPPKPKDTLMISRTPEVTCVVVDVSHEDPEVKFNWYVDGVEVHNAKTKPREEQYNSTYRVVSVLTVLHQDWLNGKEYKCKVSNKALPLPEEKTISKAKGQPREPQVYTLPPSREEMTKNQVSLTCLVKGFYPSDIAVEWESNGQPENNYKTTPPVLDSDGSFFLYSKLTVDKSRWQQGNVFSCSVLHEALHSHYTQKSLSLSPGK light: DIQMTQSPSSLSASVGDTVTITCQANGYLNWYQQRRGKAPKLLIYDGSKLERGVPSRFSGSRWGQEYTLTISSLQPEDIATYFCQVYEFVVPGTRLDLKRTVAAPSVFIFPPSDEQLKSGTASVVCLLNNFYPREAKVQWKVDNALQSGNSQESVTEQDSKDSTYSLSSTLTLSKADYEKHKVYACEVTHQGLSSPVTKSFNRGEC | 0.94 | 1.11
1.1.9-1 (antibody, human IgG1, kappa) heavy: QVQLLQSGAAVTKPGASVRVSCEASGYNIRDYFIHWWRQAPGQGLQWVGWINPKTGQPNNPRQFQGRVSLTRHASWDFDTFSFYMDLKALRSDDTAVYFCARQRSDYWDFDVWGSGTQVTVSSASTKGPSVFPLAPSSKSTSGGTAALGCLVKDYFPEPVTVSWNSGALTSGVHTFPAVLQSSGLYSLSSVVTVPSSSLGTQTYICNVNHKPSNTKVDKKVEPKSCDKTHTCPPCPAPELLAGPDVFLFPPKPKDTLMISRTPEVTCVVVDVSHEDPEVKFNWYVDGVEVHNAKTKPREEQYNSTYRVVSVLTVLHQDWLNGKEYKCKVSNKALPLPEEKTISKAKGQPREPQVYTLPPSREEMTKNQVSLTCLVKGFYPSDIAVEWESNGQPENNYKTTPPVLDSDGSFFLYSKLTVDKSRWQQGNVFSCSVLHEALHSHYTQKSLSLSPGK light: DIQMTQSPSSLSASVGDTVTITCQANGYLNWYQQRRGKAPKLLIYDGSKLETGVPSRFSGRRWGQEYNLTINNLQPEDIATYFCQVYEFVVPGTRLDLKRTVAAPSVFIFPPSDEQLKSGTASVVCLLNNFYPREAKVQWKVDNALQSGNSQESVTEQDSKDSTYSLSSTLTLSKADYEKHKVYACEVTHQGLSSPVTKSFNRGEC | 0.98 | 0.93
1.1.8-1 (antibody, human IgG1, kappa) heavy: QVQLLQSGAAVTKPGASVRVSCEASGYNIRDYFIHWWRQAPGQGLQWVGWINPKTGQPNNPRQFQGRVSLTRHASWDFDTFSFYMDLKALRSDDTAVYFCARQRSDYWDFDVWGSGTQVTVSSASTKGPSVFPLAPSSKSTSGGTAALGCLVKDYFPEPVTVSWNSGALTSGVHTFPAVLQSSGLYSLSSVVTVPSSSLGTQTYICNVNHKPSNTKVDKKVEPKSCDKTHTCPPCPAPELLAGPDVFLFPPKPKDTLMISRTPEVTCVVVDVSHEDPEVKFNWYVDGVEVHNAKTKPREEQYNSTYRVVSVLTVLHQDWLNGKEYKCKVSNKALPLPEEKTISKAKGQPREPQVYTLPPSREEMTKNQVSLTCLVKGFYPSDIAVEWESNGQPENNYKTTPPVLDSDGSFFLYSKLTVDKSRWQQGNVFSCSVLHEALHSHYTQKSLSLSPGK light: DIQMTQSPSSLSASVGDTVTITCQANGYLNWYQQRRGKAPKLLIYDASNLERGVPSRFSGRRWGQEYNLTINNLQPEDIATYFCQVYEFVVPGTRLDLKRTVAAPSVFIFPPSDEQLKSGTASVVCLLNNFYPREAKVQWKVDNALQSGNSQESVTEQDSKDSTYSLSSTLTLSKADYEKHKVYACEVTHQGLSSPVTKSFNRGEC | 1.01 | 0.5
1.1.10-1 (antibody, human IgG1, kappa) heavy: QVQLLQSGAAVTKPGASVRVSCEASGYNIRDYFIHWWRQAPGQGLQWVGWINPKTGQPNNPRQFQGRVSLTRHASWDFDTFSFYMDLKALRSDDTAVYFCARQRSDYWDFDVWGSGTQVTVSSASTKGPSVFPLAPSSKSTSGGTAALGCLVKDYFPEPVTVSWNSGALTSGVHTFPAVLQSSGLYSLSSVVTVPSSSLGTQTYICNVNHKPSNTKVDKKVEPKSCDKTHTCPPCPAPELLAGPDVFLFPPKPKDTLMISRTPEVTCVVVDVSHEDPEVKFNWYVDGVEVHNAKTKPREEQYNSTYRVVSVLTVLHQDWLNGKEYKCKVSNKALPLPEEKTISKAKGQPREPQVYTLPPSREEMTKNQVSLTCLVKGFYPSDIAVEWESNGQPENNYKTTPPVLDSDGSFFLYSKLTVDKSRWQQGNVFSCSVLHEALHSHYTQKSLSLSPGK light: DIQMTQSPSSLSASVGDTVTITCQANGYLNWYQQRRGKAPKLLIYDGSKLERGVPSRFSGRRWGQEYTLTINNLQPEDIATYFCQVYEFVVPGTRLDLKRTVAAPSVFIFPPSDEQLKSGTASVVCLLNNFYPREAKVQWKVDNALQSGNSQESVTEQDSKDSTYSLSSTLTLSKADYEKHKVYACEVTHQGLSSPVTKSFNRGEC | 0.94 | 1.1
1.1.12-1 (antibody, human IgG1, kappa) heavy: QVQLLQSGAAVTKPGASVRVSCEASGYNIRDYFIHWWRQAPGQGLQWVGWINPKTGQPNNPRQFQGRVSLTRHASWDFDTFSFYMDLKALRSDDTAVYFCARQRSDYWDFDVWGSGTQVTVSSASTKGPSVFPLAPSSKSTSGGTAALGCLVKDYFPEPVTVSWNSGALTSGVHTFPAVLQSSGLYSLSSVVTVPSSSLGTQTYICNVNHKPSNTKVDKKVEPKSCDKTHTCPPCPAPELLAGPDVFLFPPKPKDTLMISRTPEVTCVVVDVSHEDPEVKFNWYVDGVEVHNAKTKPREEQYNSTYRVVSVLTVLHQDWLNGKEYKCKVSNKALPLPEEKTISKAKGQPREPQVYTLPPSREEMTKNQVSLTCLVKGFYPSDIAVEWESNGQPENNYKTTPPVLDSDGSFFLYSKLTVDKSRWQQGNVFSCSVLHEALHSHYTQKSLSLSPGK light: DIQMTQSPSSLSASVGDTVTITCQANGYLNWYQQRRGKAPKLLIYDGSKLERGVPSRFSGRRWGQEYNLTISSLQPEDIATYFCQVYEFVVPGTRLDLKRTVAAPSVFIFPPSDEQLKSGTASVVCLLNNFYPREAKVQWKVDNALQSGNSQESVTEQDSKDSTYSLSSTLTLSKADYEKHKVYACEVTHQGLSSPVTKSFNRGEC | 1.05 | 1.02
1.1.16-1 (antibody, human IgG1, kappa) heavy: QVQLLQSGAAVTKPGASVRVSCEASGYNIRDYFIHWWRQAPGQGLQWVGWINPKTGQPNNPRQFQGRVSLTRHASWDFDTFSFYMDLKALRSDDTAVYFCARQRSDYWDFDVWGSGTQVTVSSASTKGPSVFPLAPSSKSTSGGTAALGCLVKDYFPEPVTVSWNSGALTSGVHTFPAVLQSSGLYSLSSVVTVPSSSLGTQTYICNVNHKPSNTKVDKKVEPKSCDKTHTCPPCPAPELLAGPDVFLFPPKPKDTLMISRTPEVTCVVVDVSHEDPEVKFNWYVDGVEVHNAKTKPREEQYNSTYRVVSVLTVLHQDWLNGKEYKCKVSNKALPLPEEKTISKAKGQPREPQVYTLPPSREEMTKNQVSLTCLVKGFYPSDIAVEWESNGQPENNYKTTPPVLDSDGSFFLYSKLTVDKSRWQQGNVFSCSVLHEALHSHYTQKSLSLSPGK light: DIQMTQSPSSLSASVGDTVTITCQANGYLNWYQQRRGKAPKLLIYDGSKLERGVPSRFSGRRWGQEYNLTINNLQPEDIATYFCQVYEFVGPGTRLDLKRTVAAPSVFIFPPSDEQLKSGTASVVCLLNNFYPREAKVQWKVDNALQSGNSQESVTEQDSKDSTYSLSSTLTLSKADYEKHKVYACEVTHQGLSSPVTKSFNRGEC | 1.06 | 0.99
